Experimental data from patent US20190083587A1 (Novo Nordisk, published 2019).
Each block holds one binder with its values, some of them ahead of it.

Biological target: T1, human TLT-1 on activated platelets (human, UniProt Q86YW5 16-311)
T1 sequence: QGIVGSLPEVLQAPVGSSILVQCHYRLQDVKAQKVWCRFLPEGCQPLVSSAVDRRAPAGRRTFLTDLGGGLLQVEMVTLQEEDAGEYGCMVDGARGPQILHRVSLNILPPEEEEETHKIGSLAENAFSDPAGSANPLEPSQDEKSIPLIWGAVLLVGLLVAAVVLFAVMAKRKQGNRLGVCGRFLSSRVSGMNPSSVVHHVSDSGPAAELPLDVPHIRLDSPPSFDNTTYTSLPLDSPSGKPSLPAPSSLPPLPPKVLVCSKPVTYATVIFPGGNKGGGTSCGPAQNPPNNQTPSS
Experiment: cell-based or functional assay

- peak thrombin generation at 25 nM, haemophilia A like platelet rich plasma: ~4 fold compared to rFVIIa (25 nM)
B1: FVIIa-Fab1001 (other)
heavy: EVKLLESGGGLVQPGGSLKLSCAASGFDFSRYWMTWVRQAPGKGLEWIGEINPDSSTINYNPSLKDKFIISRDNAKNTLYLQMSEVRSEDTALYYCASGVFTSWGQGTLVTVSAASTKGPSVFPLAPCSRSTSESTAALGCLVKDYFPEPVTVSWNSGALTSGVHTFPAVLQSSGLYSLSSVVTVPSSSLGTKTYTCNVDHKPSNTKVDKRVESKYGPPC
light: DVVMTQTPLSLPVSLGDQASISCRSSQSLVHRNGNTYFHWALQKPGQSPKLLIYKVSNRFSGVPDRFSGSGSGTDFTLKISRVEAEDLGVYFCSQSTHVPYTFGGGTKLEIKRTVAAPSVFIFPPSDEQLKSGTASVVCLLNNFYPREAKVQWKVDNALQSGNSQESVTEQDSKDSTYSLSSTLTLSKADYEKHKVYACEVTHQGLSSPVTKSFNRGECEDQVDPRLIDGK
chain: ANAFLEELRPGSLERECKEEQCSFEEAREIFKDAERTKLFWISYSDGDQCASSPCQNGGSCKDQLQSYICFCLPAFEGRNCETHKDDQLICVNENGGCEQYCSDHTGTKRSCRCHEGYSLLADGVSCTPTVEYPCGKIPILEKRNASKPQGRIVGGKVCPKGECPWQVLLLVNGAQLCGGTLINTIWVVSAAHCFDKIKNWRNLIAVLGEHDLSEHDGDEQSRRVAQVIIPSTYVPGTTNHDIALLRLHQPVVLTDHVVPLCLPERTFSERTLAFVRFSLVSGWGQLLDRGATALELMVLNVPRLMTQDCLQQSRKVGDSPNITEYMFCAGYSDGSKDSCKGDSGGPHATHYRGTWYLTGIVSWGQGCATVGHFGVYTRVSQYIEWLQKLMRSEPRPGVLLRAPFP
modifications: linker attached as sialic acid derivative to an N-linked glycan (ST3Gal-III); gamma-carboxylated Glu in the Gla domain; unpaired hinge Cys (YGPPC) coupled by maleimide to the 3 kDa PEG linker

- peak thrombin generation at 25 nM, haemophilia A like platelet rich plasma: ~2 fold compared to rFVIIa (25 nM)
B2: FVIIa-Fab1029 (other)
heavy: B1 heavy
light: B1 light
chain: B1 chain
modifications: linker attached as sialic acid derivative to an N-linked glycan (ST3Gal-III); gamma-carboxylated Glu in the Gla domain; unpaired hinge Cys (YGPPC) coupled by maleimide to the 10 kDa PEG linker
